In publication doi:10.1101/2022.07.13.499703:

Key:
Assay in all cases: crystal structure
[1] = biological target: BKPyV VP1 K69N-E82Q double mutant (N-Q) pentamer (BK polyomavirus) (UniProt P03088)
[2] = biological target: BKPyV VP1 E73A variant pentamer (BK polyomavirus) (UniProt P03088)
[3] = biological target: BKPyV VP1 E73Q variant pentamer (BK polyomavirus) (UniProt P03088)
[4] = biological target: BKPyV VP1 A72V-E73Q-E82Q triple mutant (VQQ) pentamer (BK polyomavirus) (UniProt P03088)

“BKPyV VP1 K69N-E82Q double mutant (N-Q) pentamer (from UniProt P03088 30-300) (domain or fragment)” was tested, and the stoichiometry N [1] was 5.

For “BKPyV VP1 E73A variant pentamer (from UniProt P03088 30-300) (domain or fragment)”, the stoichiometry N [2] was 5.

Work on “BKPyV VP1 E73Q variant pentamer (from UniProt P03088 30-300) (domain or fragment)” yielded a stoichiometry N [3] of 5.

With “BKPyV VP1 A72V-E73Q-E82Q triple mutant (VQQ) pentamer (from UniProt P03088 30-300) (domain or fragment)” the stoichiometry N [4] was 5.
